Results: patent publication US20230390362A1, “USE OF TRIGONAL AGONIST HAVING ACTIVITIES TO ALL OF GLUCAGON, GLP-1, AND GIP RECEPTORS IN TREATMENT OF SEQUELAE FOLLOWING RESPIRATORY INFECTIOUS DISEASES” (HANMI PHARM. CO., LTD., priority 2020, published 2023)
Positions of bridges follow the written chain, without caps; N, C: chain ends. Non-standard residues stand in square brackets, D forms with d. No end group written: not given here. *: point of attachment. Acetyl(2-(4-imidazolyl)) = O=C(Cc1c[nH]cn1)*; Aib = CC(C)(N)C(=O)O

T1: human GIP receptor (human, UniProt P48546 22-466)
T1 sequence (looked up): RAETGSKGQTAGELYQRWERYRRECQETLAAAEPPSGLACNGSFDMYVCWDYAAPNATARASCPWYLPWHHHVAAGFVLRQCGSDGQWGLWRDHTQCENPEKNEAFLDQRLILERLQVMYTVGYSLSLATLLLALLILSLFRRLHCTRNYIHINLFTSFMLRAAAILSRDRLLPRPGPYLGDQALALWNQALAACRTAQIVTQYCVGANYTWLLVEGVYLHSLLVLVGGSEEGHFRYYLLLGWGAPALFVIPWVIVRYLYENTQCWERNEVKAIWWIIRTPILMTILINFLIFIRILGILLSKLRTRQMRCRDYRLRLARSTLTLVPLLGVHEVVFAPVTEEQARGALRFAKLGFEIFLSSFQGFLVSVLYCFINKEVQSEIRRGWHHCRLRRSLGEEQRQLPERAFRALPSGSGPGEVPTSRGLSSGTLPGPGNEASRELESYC


Target: human GLP-1 receptor (human, UniProt P43220 24-463)
Assay: cell-based or functional assay

Binder | In vitro activity relative to native peptide (%), vs. GLP-1 (cAMP EC50) [%]
{Acetyl(2-(4-imidazolyl))}-[Aib]QGTFTSDYSKCLDEKRAKEFVQWLLDHHPSSGQPPPS (bridge 15-19) [trigonal agonist of SEQ ID NO: 74] | 12.9
Y[Aib]QGTFTSDYSKYLDEKRAKDFVQWLLDHHPSSGQPPPSC (bridge 16-20) [trigonal agonist of SEQ ID NO: 76] | 10.3
H[Aib]QGTFTSDYSKCLDEKRAKEFVQWLLDHHPSSGQPPPS (bridge 16-20) [trigonal agonist of SEQ ID NO: 65] | 95.4
Y[Aib]QGTFTSDYSKYLDECAAKEFVQWLLDHHPSSGQPPPS (bridge 16-20) [trigonal agonist of SEQ ID NO: 64] | 64.6
H[Aib]QGTFTSDVSKYLDGQAAQEFVAWLLAGC [trigonal agonist of SEQ ID NO: 9] | 32.1
{Acetyl(2-(4-imidazolyl))}-[Aib]EGTFTSDYSIAMDEIHQKDFVNWLLAQC (bridge 15-19) [trigonal agonist of SEQ ID NO: 83] | 47.3
{Acetyl(2-(4-imidazolyl))}-[Aib]QGTFTSDYSKYLDEKRQKEFVQWLLDTC (bridge 15-19) [trigonal agonist of SEQ ID NO: 82] | 9.5
Y[Aib]QGTFTSDYSKCLDEKRAKDFVQWLLDHHPSSGQPPPS (bridge 16-20) [trigonal agonist of SEQ ID NO: 70] | 15.1
Y[Aib]QGTFTSDYSKCLDERAAKEFVQWLLDHHPSSGQPPPS (bridge 16-20) [trigonal agonist of SEQ ID NO: 69] | 24.3
Y[Aib]QGTFTSDYSKYLDEKAAKEFVQWLLDHHPSSGQPPPSC (bridge 16-20) [trigonal agonist of SEQ ID NO: 75] | 35.1
H[Aib]QGTFTSDVSKYLDGQAAQEFVAWLLKGC [trigonal agonist of SEQ ID NO: 8] | 14.2
H[Aib]EGTFTSDYSIAMDEIHQKDFVNWLLAQKC (bridge 16-20) [trigonal agonist of SEQ ID NO: 79] | 41.5
H[Aib]QGTFTSDVSKYLDGQAAKEFVAWLLKGC [trigonal agonist of SEQ ID NO: 7] | 13.7
{Acetyl(2-(4-imidazolyl))}-[Aib]QGTFTSDYSIAMDEKHCKDFVNWLLNTK (bridge 15-19) [trigonal agonist of SEQ ID NO: 60] | 106

Target: human GCG receptor (human, UniProt P47871 26-477)
Sequence (P47871 26-477): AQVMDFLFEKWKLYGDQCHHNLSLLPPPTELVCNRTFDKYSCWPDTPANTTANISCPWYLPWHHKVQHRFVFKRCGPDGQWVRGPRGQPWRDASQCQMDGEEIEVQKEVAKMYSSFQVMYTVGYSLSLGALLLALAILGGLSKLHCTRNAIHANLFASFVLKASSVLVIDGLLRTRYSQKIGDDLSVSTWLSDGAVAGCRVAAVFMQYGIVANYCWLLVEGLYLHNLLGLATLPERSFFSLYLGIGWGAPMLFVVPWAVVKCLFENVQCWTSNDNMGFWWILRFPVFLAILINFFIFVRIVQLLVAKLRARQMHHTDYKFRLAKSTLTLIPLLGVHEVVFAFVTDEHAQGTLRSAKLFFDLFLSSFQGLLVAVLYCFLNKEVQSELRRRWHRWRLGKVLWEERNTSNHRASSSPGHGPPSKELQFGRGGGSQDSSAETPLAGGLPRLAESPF
Assay: cell-based or functional assay

Binder | In vitro activity relative to native peptide (%), vs. Glucagon (cAMP EC50) [%]
{Acetyl(2-(4-imidazolyl))}-[Aib]QGTFTSDYSKCLDEKRAKEFVQWLLDHHPSSGQPPPS (bridge 15-19) [trigonal agonist of SEQ ID NO: 74] | 0.9
Y[Aib]QGTFTSDYSKYLDEKRAKDFVQWLLDHHPSSGQPPPSC (bridge 16-20) [trigonal agonist of SEQ ID NO: 76] | 47.6
H[Aib]QGTFTSDYSKCLDEKRAKEFVQWLLDHHPSSGQPPPS (bridge 16-20) [trigonal agonist of SEQ ID NO: 65] | 25.2
Y[Aib]QGTFTSDYSKYLDECAAKEFVQWLLDHHPSSGQPPPS (bridge 16-20) [trigonal agonist of SEQ ID NO: 64] | 60.1
H[Aib]QGTFTSDVSKYLDGQAAQEFVAWLLAGC [trigonal agonist of SEQ ID NO: 9] | 0.13
{Acetyl(2-(4-imidazolyl))}-[Aib]EGTFTSDYSIAMDEIHQKDFVNWLLAQC (bridge 15-19) [trigonal agonist of SEQ ID NO: 83] | 1.3
{Acetyl(2-(4-imidazolyl))}-[Aib]QGTFTSDYSKYLDEKRQKEFVQWLLDTC (bridge 15-19) [trigonal agonist of SEQ ID NO: 82] | 1.1
Y[Aib]QGTFTSDYSKCLDEKRAKDFVQWLLDHHPSSGQPPPS (bridge 16-20) [trigonal agonist of SEQ ID NO: 70] | 71.3
Y[Aib]QGTFTSDYSKCLDERAAKEFVQWLLDHHPSSGQPPPS (bridge 16-20) [trigonal agonist of SEQ ID NO: 69] | 9.6
Y[Aib]QGTFTSDYSKYLDEKAAKEFVQWLLDHHPSSGQPPPSC (bridge 16-20) [trigonal agonist of SEQ ID NO: 75] | 8.5
H[Aib]QGTFTSDVSKYLDGQAAQEFVAWLLKGC [trigonal agonist of SEQ ID NO: 8] | 0.1
H[Aib]EGTFTSDYSIAMDEIHQKDFVNWLLAQKC (bridge 16-20) [trigonal agonist of SEQ ID NO: 79] | 4.9
H[Aib]QGTFTSDVSKYLDGQAAKEFVAWLLKGC [trigonal agonist of SEQ ID NO: 7] | < 0.1
{Acetyl(2-(4-imidazolyl))}-[Aib]QGTFTSDYSIAMDEKHCKDFVNWLLNTK (bridge 15-19) [trigonal agonist of SEQ ID NO: 60] | < 0.1

Target: T1, human GIP receptor
Assay: cell-based or functional assay

Binder | In vitro activity relative to native peptide (%), vs. GIP (cAMP EC50) [%]
{Acetyl(2-(4-imidazolyl))}-[Aib]QGTFTSDYSKCLDEKRAKEFVQWLLDHHPSSGQPPPS (bridge 15-19) [trigonal agonist of SEQ ID NO: 74] | 1
Y[Aib]QGTFTSDYSKYLDEKRAKDFVQWLLDHHPSSGQPPPSC (bridge 16-20) [trigonal agonist of SEQ ID NO: 76] | 11.7
H[Aib]QGTFTSDYSKCLDEKRAKEFVQWLLDHHPSSGQPPPS (bridge 16-20) [trigonal agonist of SEQ ID NO: 65] | 11.6
Y[Aib]QGTFTSDYSKYLDECAAKEFVQWLLDHHPSSGQPPPS (bridge 16-20) [trigonal agonist of SEQ ID NO: 64] | 92.9
H[Aib]QGTFTSDVSKYLDGQAAQEFVAWLLAGC [trigonal agonist of SEQ ID NO: 9] | < 0.1
{Acetyl(2-(4-imidazolyl))}-[Aib]EGTFTSDYSIAMDEIHQKDFVNWLLAQC (bridge 15-19) [trigonal agonist of SEQ ID NO: 83] | 0.4
{Acetyl(2-(4-imidazolyl))}-[Aib]QGTFTSDYSKYLDEKRQKEFVQWLLDTC (bridge 15-19) [trigonal agonist of SEQ ID NO: 82] | < 0.1
Y[Aib]QGTFTSDYSKCLDEKRAKDFVQWLLDHHPSSGQPPPS (bridge 16-20) [trigonal agonist of SEQ ID NO: 70] | 64.4
Y[Aib]QGTFTSDYSKCLDERAAKEFVQWLLDHHPSSGQPPPS (bridge 16-20) [trigonal agonist of SEQ ID NO: 69] | 62.8
Y[Aib]QGTFTSDYSKYLDEKAAKEFVQWLLDHHPSSGQPPPSC (bridge 16-20) [trigonal agonist of SEQ ID NO: 75] | 18
H[Aib]QGTFTSDVSKYLDGQAAQEFVAWLLKGC [trigonal agonist of SEQ ID NO: 8] | < 0.1
H[Aib]EGTFTSDYSIAMDEIHQKDFVNWLLAQKC (bridge 16-20) [trigonal agonist of SEQ ID NO: 79] | 1.4
H[Aib]QGTFTSDVSKYLDGQAAKEFVAWLLKGC [trigonal agonist of SEQ ID NO: 7] | < 0.1
{Acetyl(2-(4-imidazolyl))}-[Aib]QGTFTSDYSIAMDEKHCKDFVNWLLNTK (bridge 15-19) [trigonal agonist of SEQ ID NO: 60] | 8.2
